Experimental data published in patent US20200283521A1 (GRANULAR THERAPEUTICS, published 2020).

T1: hTWEAK-Fc (human, UniProt O43508)
T1 construct: Fc fusion; member of the panel m9
T1 sequence (looked up): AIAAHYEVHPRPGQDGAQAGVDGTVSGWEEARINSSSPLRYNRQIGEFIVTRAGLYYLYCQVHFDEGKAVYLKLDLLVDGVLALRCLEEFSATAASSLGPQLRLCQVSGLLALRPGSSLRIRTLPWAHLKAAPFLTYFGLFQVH

T2: OSM (human, UniProt P13725)
T2 construct: expressed in transfected HEK293 cells
T2 sequence (looked up): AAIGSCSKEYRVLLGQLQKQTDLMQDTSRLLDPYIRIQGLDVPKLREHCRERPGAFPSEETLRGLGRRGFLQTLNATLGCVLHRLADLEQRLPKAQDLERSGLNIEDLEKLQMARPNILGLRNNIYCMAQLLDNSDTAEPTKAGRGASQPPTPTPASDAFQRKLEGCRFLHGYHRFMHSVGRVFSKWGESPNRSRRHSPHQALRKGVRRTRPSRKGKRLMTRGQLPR

T3: MS4A1 (human, UniProt P11836)
T3 construct: expressed in transfected HEK293 cells; also called CD20
T3 sequence (looked up): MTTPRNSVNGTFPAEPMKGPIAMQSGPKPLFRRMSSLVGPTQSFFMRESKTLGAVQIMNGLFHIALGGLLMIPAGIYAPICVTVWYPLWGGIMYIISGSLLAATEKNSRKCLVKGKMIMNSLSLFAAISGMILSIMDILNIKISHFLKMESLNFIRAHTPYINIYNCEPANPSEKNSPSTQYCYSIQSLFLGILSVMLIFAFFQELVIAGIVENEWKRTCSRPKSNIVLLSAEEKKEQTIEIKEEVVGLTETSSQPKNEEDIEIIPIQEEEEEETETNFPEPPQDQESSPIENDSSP

T4: ANXA6 (human, UniProt P08133)
T4 construct: expressed in transfected HEK293 cells
T4 sequence (looked up): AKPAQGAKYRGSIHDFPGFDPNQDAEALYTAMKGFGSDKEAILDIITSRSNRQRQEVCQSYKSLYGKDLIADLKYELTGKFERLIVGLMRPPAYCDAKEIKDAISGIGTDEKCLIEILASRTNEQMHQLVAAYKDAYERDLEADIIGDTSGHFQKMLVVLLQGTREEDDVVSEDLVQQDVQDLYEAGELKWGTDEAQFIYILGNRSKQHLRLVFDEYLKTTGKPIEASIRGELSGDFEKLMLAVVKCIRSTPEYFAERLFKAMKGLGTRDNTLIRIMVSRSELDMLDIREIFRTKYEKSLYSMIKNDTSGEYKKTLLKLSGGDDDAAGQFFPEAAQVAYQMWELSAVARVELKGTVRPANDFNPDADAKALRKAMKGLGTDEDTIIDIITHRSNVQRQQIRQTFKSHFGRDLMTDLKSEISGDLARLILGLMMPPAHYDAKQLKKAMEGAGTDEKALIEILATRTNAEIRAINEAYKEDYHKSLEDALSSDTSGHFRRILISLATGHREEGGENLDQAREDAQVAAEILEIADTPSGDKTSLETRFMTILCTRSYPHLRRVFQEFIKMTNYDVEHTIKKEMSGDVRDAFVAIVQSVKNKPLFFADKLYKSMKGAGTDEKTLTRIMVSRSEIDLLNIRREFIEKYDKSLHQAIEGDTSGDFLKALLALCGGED

T5: EDN2 (human, UniProt P20800)
T5 construct: expressed in transfected HEK293 cells
T5 sequence (looked up): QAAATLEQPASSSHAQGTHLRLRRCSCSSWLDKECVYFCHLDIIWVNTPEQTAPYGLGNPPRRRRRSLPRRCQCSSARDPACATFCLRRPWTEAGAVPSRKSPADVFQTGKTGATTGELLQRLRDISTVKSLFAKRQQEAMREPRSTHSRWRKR

T6: TGM2 (human, UniProt P21980)
T6 construct: expressed in transfected HEK293 cells
T6 sequence (looked up): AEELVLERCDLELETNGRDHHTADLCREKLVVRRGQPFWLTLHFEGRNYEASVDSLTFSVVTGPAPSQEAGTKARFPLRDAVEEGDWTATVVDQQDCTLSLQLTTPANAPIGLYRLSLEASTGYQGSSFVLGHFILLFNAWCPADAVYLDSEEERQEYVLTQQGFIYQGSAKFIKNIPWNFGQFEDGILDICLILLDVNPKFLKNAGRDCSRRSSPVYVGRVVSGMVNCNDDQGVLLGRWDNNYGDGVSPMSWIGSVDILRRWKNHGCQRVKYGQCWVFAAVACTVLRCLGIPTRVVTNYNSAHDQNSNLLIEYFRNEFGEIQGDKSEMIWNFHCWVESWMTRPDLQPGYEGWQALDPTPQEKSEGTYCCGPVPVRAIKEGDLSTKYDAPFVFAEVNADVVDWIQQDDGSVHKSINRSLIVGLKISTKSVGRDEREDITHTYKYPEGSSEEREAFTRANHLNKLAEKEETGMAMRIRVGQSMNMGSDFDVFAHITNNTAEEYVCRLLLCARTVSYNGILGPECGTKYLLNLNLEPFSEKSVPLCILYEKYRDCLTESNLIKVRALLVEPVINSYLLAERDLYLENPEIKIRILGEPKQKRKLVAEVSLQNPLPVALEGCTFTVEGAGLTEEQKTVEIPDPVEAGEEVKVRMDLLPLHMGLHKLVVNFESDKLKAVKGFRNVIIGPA


Legend:
hTWEAK-Fc = molecular target: T1, hTWEAK-Fc; test: direct ELISA on coated protein, IgG1
hLTBR-Fc = molecular target: T7, hLTBR-Fc (human, UniProt P36941); test: direct ELISA on coated protein, IgG1
T7 construct: Fc fusion; member of the panel m9
T7 sequence (P36941 28-227 limits assumed): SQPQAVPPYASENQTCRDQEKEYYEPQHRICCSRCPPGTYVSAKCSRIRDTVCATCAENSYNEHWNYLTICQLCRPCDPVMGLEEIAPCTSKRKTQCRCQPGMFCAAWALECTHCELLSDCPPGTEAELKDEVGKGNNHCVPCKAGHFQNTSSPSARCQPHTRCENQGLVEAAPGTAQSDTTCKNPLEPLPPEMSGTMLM

hBAFFR-Fc = molecular target: T8, hBAFFR-Fc (human, UniProt Q96RJ3); test: direct ELISA on coated protein, IgG1
T8 construct: Fc fusion; member of the panel m9
T8 sequence (Q96RJ3 7-71 limits assumed): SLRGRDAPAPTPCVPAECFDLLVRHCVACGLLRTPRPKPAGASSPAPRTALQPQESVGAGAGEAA

OSM = molecular target: T2, OSM; test: cell array, transfected fixed HEK293 cells
Experimental: (§1) Transfection of all plasmids was confirmed by screening for the co-encoded marker ZS green (FIG. 13A).
(§2) Primary hits (duplicate spots) were identified by analysing fluorescence (AF647 and ZsGreenl) on ImageQuant. Vectors encoding all hits were sequenced to confirm their correct identities. […] Slides were analysed as above.

MS4A1 = molecular target: T3, MS4A1; test: cell array, transfected fixed HEK293 cells
Experimental: as §1, §2

ANXA6 = molecular target: T4, ANXA6; test: cell array, transfected fixed HEK293 cells
Experimental: as §1, §2

DES = molecular target: T9, DES (human, UniProt P17661); test: cell array, transfected fixed HEK293 cells
T9 construct: expressed in transfected HEK293 cells
T9 sequence (P17661 2-470 limits assumed): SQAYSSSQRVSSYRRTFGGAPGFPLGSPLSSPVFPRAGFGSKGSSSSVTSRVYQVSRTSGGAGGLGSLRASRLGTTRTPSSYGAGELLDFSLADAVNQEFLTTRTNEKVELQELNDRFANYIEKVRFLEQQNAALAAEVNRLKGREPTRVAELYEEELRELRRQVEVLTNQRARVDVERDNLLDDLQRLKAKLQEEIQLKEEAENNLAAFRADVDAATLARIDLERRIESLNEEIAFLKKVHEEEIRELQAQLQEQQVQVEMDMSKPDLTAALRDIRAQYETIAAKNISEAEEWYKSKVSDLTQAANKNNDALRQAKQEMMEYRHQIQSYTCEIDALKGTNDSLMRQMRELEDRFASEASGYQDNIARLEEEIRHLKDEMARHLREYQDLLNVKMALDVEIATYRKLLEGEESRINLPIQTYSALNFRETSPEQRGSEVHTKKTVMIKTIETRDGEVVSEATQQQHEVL
Experimental: as §1, §2

EDN2 = molecular target: T5, EDN2; test: cell array, transfected fixed HEK293 cells
Experimental: as §1, §2

TGM2 = molecular target: T6, TGM2; test: cell array, transfected fixed HEK293 cells
Experimental: as §1, §2

Binder | binding result (hTWEAK-Fc) | binding result (hLTBR-Fc) | binding result (hBAFFR-Fc) | binding result (OSM) | binding result (MS4A1) | binding result (ANXA6) | binding result (DES) | binding result (EDN2) | binding result (TGM2)
MH5.22 (antibody, IgG1, V domains shown, IgG1; also called C-KIT-MH5.22) VH: QVQLVQSGAEVKKPGASVKVSCKASGYTFTDFYMNWVRQAPGQGLEWMGRIYPASGNTYYAQKFQGRVTMTRDTSTSTVYMELSSLRSEDTAVYYCARGVWYYDYWGQGTLVTVSS VL: DIQMTQSPSSLSASVGDRVTITCRASQGIRTNLAWFQQKPGKAPKSLIYAASSLQSGVPSRFSGSGSGTDFTLTISSLQPEDFATYYCQQYANYPRTFGGGTKVEIK | no binding (tested: 1 µg/ml) | no binding (tested: 1 µg/ml) | no binding (tested: 1 µg/ml) |  |  |  |  |  | 
humanized h37M, human IgG1 (antibody, V domains shown, human IgG1; terbium-labelled as the tracer of the HTRF assays; also called C-KIT-h37M; h37M-IgG1) VH: QVQLVQSGAEVKKPGASVKLSCKASGYTFTDYYINWVRQAPGKGLEWIARIYPGSGNTYYNEKFKGRATLTADKSTSTAYMQLSSLRSEDTAVYFCARGVYYFDYWGQGTTVTVSS VL: DIVMTQSPSSLSASVGDRVTITCKASQNVRTNVAWYQQKPGKAPKALIYSASYRYSGVPDRFTGSGSGTDFTLTISSLQPEDFADYFCQQYNSYPRTFGGGTKVEIK |  |  |  | no binding (tested: 2 µg/ml) | no binding (tested: 2 µg/ml) | no binding (tested: 2 µg/ml) | no binding (tested: 2 µg/ml) | no binding (tested: 2 µg/ml) | no binding (tested: 2 µg/ml)
